Experiment [1] has as its target T1, extracellular domain (ECD) of human αKlotho, amino acids E34-S981 with C-terminal 6-His tag (R&D Systems … (human, UniProt Q9UEF7 34-981)).
T1 construct: range 34-981; also called αKlotho (aa34-981); target antigen
T1 sequence: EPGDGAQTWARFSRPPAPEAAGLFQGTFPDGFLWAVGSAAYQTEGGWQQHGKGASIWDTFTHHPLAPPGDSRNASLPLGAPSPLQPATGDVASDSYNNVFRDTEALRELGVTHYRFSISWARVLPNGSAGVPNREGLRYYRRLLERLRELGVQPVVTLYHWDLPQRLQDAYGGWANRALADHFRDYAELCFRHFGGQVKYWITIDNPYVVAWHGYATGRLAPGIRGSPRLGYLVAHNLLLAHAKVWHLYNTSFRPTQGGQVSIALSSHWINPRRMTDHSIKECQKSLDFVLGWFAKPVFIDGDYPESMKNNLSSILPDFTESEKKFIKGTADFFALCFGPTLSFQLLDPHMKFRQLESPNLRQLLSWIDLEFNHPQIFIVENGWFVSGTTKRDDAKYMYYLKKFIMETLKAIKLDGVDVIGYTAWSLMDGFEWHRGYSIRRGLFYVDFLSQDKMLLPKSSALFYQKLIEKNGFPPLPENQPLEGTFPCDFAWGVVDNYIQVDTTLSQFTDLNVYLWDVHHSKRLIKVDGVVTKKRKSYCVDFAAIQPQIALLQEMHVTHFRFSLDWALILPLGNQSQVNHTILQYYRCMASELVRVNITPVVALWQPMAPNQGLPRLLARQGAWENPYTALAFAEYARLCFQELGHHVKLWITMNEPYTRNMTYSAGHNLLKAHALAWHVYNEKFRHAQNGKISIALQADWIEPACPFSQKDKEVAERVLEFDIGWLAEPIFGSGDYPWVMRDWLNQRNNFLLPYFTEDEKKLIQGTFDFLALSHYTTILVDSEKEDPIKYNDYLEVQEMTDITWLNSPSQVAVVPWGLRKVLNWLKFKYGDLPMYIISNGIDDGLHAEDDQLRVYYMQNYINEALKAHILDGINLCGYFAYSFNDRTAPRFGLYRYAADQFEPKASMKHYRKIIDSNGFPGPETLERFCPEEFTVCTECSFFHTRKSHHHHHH
The experiment is described as follows: SPR, Fab captured by anti-H+L antibody, αKlotho injected. The method, then: (§1) Affinity estimates for each of the antibodies were determined by surface plasmon resonance (SPR). Fabs were immobilized using an anti-H+L antibody and serial dilutions of αKlotho were injected.

For experiment [2], the target named is T1, extracellular domain (ECD) of human …. The experiment is described as follows: SPR, Fab captured by anti-H+L IgG, αKlotho injected at 50 to 6.25 ug/ml, Langmuir fit [continued]. As to the method:
as §1

B1: anti-αKlotho Fab clone 4813 (Fab, V domains shown)
VH: EVQLVESGGGLVQPGGSLRLSCAASGFNLYSSSIHWVRQAPGKGLEWVASISPYSGYTYYADSVKGRFTISADTSKNTAYLQMNSLRAEDTAVYYCARYYSGWYSPAWWYGIDYWGQGTLVTVSS
VL: DIQMTQSPSSLSASVGDRVTITCRASQSVSSAVAWYQQKPGKAPKLLIYSASSLYSGVPSRFSGSRSGTDFTLTISSLQPEDFATYYCQQAAWGGAPITFGQGTKVEIKR
notes: Fab (also as Fab-phage); FLAG tag on light chain; also called sb182
Consider B1, for which the dissociation constant (Kd) in experiment [1] came to 5.2 nM. In experiment [2], this molecule returned a Kd of 2.8 nM, a koff of 0.00164 s⁻¹ and an association rate constant (kon) of 588000 M⁻¹ s⁻¹.

B2: anti-αKlotho Fab clone 4816 (Fab, V domains shown)
VH: EVQLVESGGGLVQPGGSLRLSCAASGFNFSSSSIHWVRQAPGKGLEWVASISSSYGYTYYADSVKGRFTISADTSKNTAYLQMNSLRAEDTAVYYCARGWYAAYSVYWFGGHASYGLDYWGQGTLVTVSS
VL: DIQMTQSPSSLSASVGDRVTITCRASQSVSSAVAWYQQKPGKAPKLLIYSASSLYSGVPSRFSGSRSGTDFTLTISSLQPEDFATYYCQQSSYSLITFGQGTKVEIKR
notes: Fab (also as Fab-phage); FLAG tag on light chain; also called sb185
Molecule B2 returned a dissociation constant (Kd) in experiment [1] of 3.7 nM. In experiment [2], this molecule had a Kd of 2.06 nM, a koff of 0.00183 s⁻¹ and a kon of 888000 M⁻¹ s⁻¹.

B3: anti-αKlotho Fab clone 4821 (Fab, V domains shown)
VH: EVQLVESGGGLVQPGGSLRLSCAASGFNLYYSYMHWVRQAPGKGLEWVASISPYSGSTYYADSVKGRFTISADTSKNTAYLQMNSLRAEDTAVYYCARSGFSSWWWVVSYAFDYWGQGTLVTVSS
VL: DIQMTQSPSSLSASVGDRVTITCRASQSVSSAVAWYQQKPGKAPKLLIYSASSLYSGVPSRFSGSRSGTDFTLTISSLQPEDFATYYCQQSSYSLITFGQGTKVEIKR
notes: Fab (also as Fab-phage); FLAG tag on light chain; also called sb190
In turn, B3 returned an equilibrium dissociation constant (Kd) in experiment [1] of 5.1 nM. Moreover, in experiment [2], the dissociation constant (Kd) worked out at 2.85 nM, the koff stood at 0.00277 s⁻¹ and the association rate constant (kon) stood at 973000 M⁻¹ s⁻¹.

B4: anti-αKlotho Fab clone 4817 (Fab, V domains shown)
VH: EVQLVESGGGLVQPGGSLRLSCAASGFNFSSSSIHWVRQAPGKGLEWVASISSSYGYTYYADSVKGRFTISADTSKNTAYLQMNSLRAEDTAVYYCARGYPSSGAAWFWFSHPGSAMDYWGQGTLVTVSS
VL: DIQMTQSPSSLSASVGDRVTITCRASQSVSSAVAWYQQKPGKAPKLLIYSASSLYSGVPSRFSGSRSGTDFTLTISSLQPEDFATYYCQQSSYSLITFGQGTKVEIKR
notes: Fab (also as Fab-phage); FLAG tag on light chain; also called sb186
As for B4, in experiment [1], the dissociation constant Kd stood at 4.1 nM. Moreover, in experiment [2], binding was put at a Kd of 1.93 nM, the off-rate constant (koff) was 0.00269 s⁻¹ and the association rate constant (kon) amounted to 1.39e+06 M⁻¹ s⁻¹.

B5: anti-αKlotho Fab clone 4812 (Fab, V domains shown)
VH: EVQLVESGGGLVQPGGSLRLSCAASGFNLSSYSMHWVRQAPGKGLEWVASISSYSGYTSYADSVKGRFTISADTSKNTAYLQMNSLRAEDTAVYYCARSYSWWWSVSYAMDYWGQGTLVTVSS
VL: DIQMTQSPSSLSASVGDRVTITCRASQSVSSAVAWYQQKPGKAPKLLIYSASSLYSGVPSRFSGSRSGTDFTLTISSLQPEDFATYYCQQGYWLFTFGQGTKVEIK
notes: Fab (also as Fab-phage); FLAG tag on light chain; also called sb181
Consider B5, for which the Kd in experiment [1] turned out to be 0.885 nM. In experiment [2], this molecule gave a Kd of 0.387 nM, a dissociation rate constant (koff) of 0.000191 s⁻¹ and a kon of 493000 M⁻¹ s⁻¹.

B6: anti-αKlotho Fab clone 4818 (Fab, V domains shown)
VH: EVQLVESGGGLVQPGGSLRLSCAASGFNISYSSIHWVRQAPGKGLEWVASISPYSGYTYYADSVKGRFTISADTSKNTAYLQMNSLRAEDTAVYYCARSGHSVYWWWSHFGMDYWGQGTLVTVSS
VL: DIQMTQSPSSLSASVGDRVTITCRASQSVSSAVAWYQQKPGKAPKLLIYSASSLYSGVPSRFSGSRSGTDFTLTISSLQPEDFATYYCQQPYSPITFGQGTKVEIKR
notes: Fab (also as Fab-phage); FLAG tag on light chain; also called sb187
On to B6, for which the dissociation constant (Kd) in experiment [1] came to 2.1 nM. In experiment [2], this molecule returned a Kd of 1.05 nM, an off-rate (koff) of 0.000539 s⁻¹ and a kon of 512000 M⁻¹ s⁻¹.

Broadly, the Kd is the equilibrium constant for the complex coming apart. High values mean a looser complex, low ones a tighter complex. For orientation: koff means a measure of how fast the partners let go of each other. Lower therefore signals a long-lived complex. In general, kon refers to a measure of how fast the partners come together. Read a low kon as slow association.

The values are drawn from patent publication US20190041402A1 (GOVERNING COUNCIL OF THE UNIVERSITY OF TORONTO, published 2019).
